From patent EP4039818A1

Target: a-sACE2 (enzymatically active soluble ACE2) as measured in Example 7b (UniProt Q9BYF1)
Assay: cell-based or functional assay

enzymatic activity measurement performed according to the enzymatic activity assay of example 3a: > 5 µg/mL
Substance: goat polyclonal anti-human ACE2 antibody (R&D Systems, #AF933)
